Reference: the nanobody polyreactivity screen of Harvey et al. (2022)

Assay: yeast display, Sf9 membrane polyspecificity reagent, FACS + sequencing; frameworks hold sequencing errors
Method in brief: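 Using colony PCR, genes from sorted yeast display clones were amplified, then sequenced on MiSeq at 2 × 250 and filtered by CDR length. The clones had been stained with 10% biotinylated, detergent-solubilized Sf9 membrane reagent for 1 hour at 4 °C and sorted by FACS into low and high (top ~1%) gates on anti-HA and streptavidin fluorescence. Polyreactivity labels come from the gate of origin.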

Row | Sequence | polyreactivity (PSR sort gate)
1 | QVQLVESGGGLVQAGGSLRLSCAASGRIFATNGMGWYRQATGKERELVATSTRSAGRTYYADSVKGRFTISRDNAKNTVYLQMNSLKPEDTAVYYCAADGYSTAVDDTVRYIVEYEYWGQGTQVTVSS | low polyreactivity
2 | QVQLVESGGGLVQAGGSLRLSCAASGYTFFFNVMGWYRQAPGKVRELVAAISYSGGSTNYADSVKGRFTISRDNAKNTVYLQMNSLKPEDTAVYYCNARSVSRNGYEDVYWGQGTQVTVSS | low polyreactivity
3 | QVQLVESGGGLVQAGCSLRLSCAASGRTFRSDNSMGWYRQSPGKQRELVAAISQGGGTYYADSVKGRFTISRDNAKNTVYLLMNSLIPEDTAVYYCARDAFYADPSLWYYTYDFWGQGTQETVSS | low polyreactivity
4 | QVQLVESGGGIVQAGGSLRLSCAASGSTFRAYVMGWSRPAPGKERELVAAITYRGTSTYYADSVKGRFTISRDNAKYTVYLQMNSLKPEDTAVYYCAARRLYTRGTYDYWGLGTQVTVSS | high polyreactivity
5 | QVHLVESGGGLLQAGGSLRLSCAASGITFSRNVMGWYIQAPGKERELVAAISTSGGSTYYADSVKGRFTISRDNAKNTVYLQMNSLKPEDTAGYYCAKDITVTYPGLDYDYWGQGTQVTVSS | low polyreactivity
6 | QVQLVESGGGLVQAGGSLRLSCAASGFTFYLYTMGWYLQAPGKERELVATITSDGGTNYADSVKGRFTISRDNAKNTVYLQMNSLKPEDTAVYYCNAASRRGSRKQAKYDYWGQGTQVTVSS | low polyreactivity
7 | QVQLVESGGGLVQAGGSLRLSCAASGFTFVYYVMGWYRQAPGKERELVAAINAGGGSTYYADSVKGRFTISRDNAKNTVYLQMNSLKPEDTAVYYCYARVRVRLGRNWSSYYYWGQGTQVNVSS | high polyreactivity
8 | QVQLVETGGGLVQAGGSLRLSCAASGSIFTYYAMGWYRQAPGKEREFVAGISWSGGRTYYADSVKGRFTISRDNAKNTVYLQMNSLKPEDTAVYYCAAEIHDRFDSWGQGTQVTVSS | low polyreactivity
9 | QVQLVESGGGLVQAGGSLRLSCAASGLTLSYYAMGWYRPAPGKEMELVAAISSGGSTYYADSVKGRFTISRDNAKNTVYLQMNSLKPEDTAVYYCAAQWWRLYWEYYYWGQGTQVTVSS | low polyreactivity
10 | QVQLVESGGGLVQAGGSLRLSCAASGFTFSYYTMGWYRQAPGKERELVAAISSTGVSTYYADSVKGRFTISRDNAKNTVYLQMNSLKPEDTAVYYCAADYYGVYEYYYWGQGTQVTVSS | high polyreactivity
11 | QVQLVESGGGLVQAGGSLRLSCAASGRTFRRNAMGWYRQAPGKERELVAAIRWSSGSTYYADSVNGRFTISRDNAKNTVYLQMNSLKPEDTAVYYCAADGDWYGYIWQSDDGYDSWGQGTQVTVSS | low polyreactivity
12 | QDQLVESGGGLVQAGGSLRLSCAASGITFDRYALGWYRQAPGKEREFVAAISWRGGSTYYADSVKGRFTISRDNAKNTVYLQMNSLKPEDTAVYYCAVGYYDHDYWYEYWGQGSQVTVSS | high polyreactivity
13 | QVQIVESGGGLVQAGGSLRLSCAASGSTFLTNTMGWYRQAPGKERELVAAITLRGGRTYYADSVKGRFTISRDNAKNTVYLQMNSLRPEDTAVYYCNARNYYYPSDRDYWGQGTQVTVSS | low polyreactivity
14 | QVQLVESGGGLVQAGGSLRLSCAASGFIFVKNAMGWYRQAPGKERELVATINCGSSTTYADSVKGRFTISRDNAKNTVYLQMNSLKPEDTAVYYCNADDVENWTEYDYWGQGTQVTVSS | low polyreactivity
15 | QVQLVESGGGLVQAGGSLRLSCAASGRIFGPYTMGWYRQEPGKERELVAAITGRVVSTYYADSVKGRFTISRDNAKNTVYLQMNSLQPEDTAVYYCAARIYYYNTRGDYWAQGTQVTVSS | high polyreactivity
16 | QVQLVESGGGLVQAGGSLRLSCAASGSILYTNAMGWYRQAPGKERELVAAITTSGASTYYADSVKGRFTISRDNAKNTVYLQMNSLKPEDTAVYDCAAPSRYRYYWGNYWGQGTQVTVSS | high polyreactivity
17 | QVQLVESGGGLVQAGGSLRLSCAASGINLRRYAMGWYRQAPGKERELVARISYRGGRTNYADSVKGRFTISRDNAKNTVYLQMNSLKPEDTAVYYCAAVAWYYHEGTAYNYWGQGTQVTVSS | high polyreactivity
18 | QVQLVESGGGLFQAGGSLRLSCAASGSIFGYYAMGWYIQAPGKERELVARISYSGGTTYYADSVKGRFTISRDNAKNTVYLQMNSLKPEDTAVYYCNARIPYSWRYGYWGQGTQVTVSS | high polyreactivity
19 | QVQLVESGGGLVQAGGSLRLSCAASGRIFVGYAMGWYRQAPGKEREFVAAITFRGGTTYYADSVKGRFTITRDYAKNTVYLQMNSLKPEDTAVYYCAVPLYLYSVEYGYWGQGNQVTVSS | low polyreactivity
20 | QVQLVESGGGLVQAGGSLRLSCAASGRTFWGYGMGWYRQAPGKERELVATISSGGSTYYADSVKGRFTISRDNAKNTVYLQMNSLKPEDTAVYYCAARPPRTYWRYQSDYWGQGTQVTVSS | high polyreactivity
21 | QVQLVESGGGLVQAGGSLRLSCAASGSIFQSYDMGWYRQAPGKERELVAAIRSGDSTYYADSVKGRFTISRDNAKNTVYLQMNSLKPEDTAVYYCNARYGNESQGWEDYWGQGTQVTVSS | low polyreactivity
22 | QVQLVESGGGLVQAGGSLRLSCAASGSTFYFYVLGWYRQAPGKERELVAAISWGGASTYYAVSVKGRFTISRDHAKNTVYLQLNSLKPEDTAVYNCTDRLRVRYDYWGQGTQVTVSS | low polyreactivity

Row | Sequence | polyreactivity (PSR sort gate)
23 | QVQLVESGGGLVQAGGSLRLSCAASGHIFSYYAMGWYRQAPGKERELVAAISSSGSSTYYADSVKGRFTISRDNAKNTVYLQMNSLKPEDTAVYYCNAPYIAWYDGDYWGQGTQVTVSS | low polyreactivity
24 | QDQLVESGGCLVQAGGSLRLSCAASGSIFKTYAMGWYRQAPGKERELVAAISWRGGSTYYADSVKGRFTISRDNAKNTVYLQMISLKPEDTAVYYCAAGRKFGTRTLWYRYGYWGQGTQVTVSS | high polyreactivity
25 | QVQLVESGGGLVQAGGSLRLSCAASGSILYWNAMGWYRQAPGKERELVADITWRGGSTYADSVKGRFTISRDNAKNTVYLQMNSLKPEDTAVYYCNAVPVRGSAPRYRQTYSYWGQGTQVTVSS | high polyreactivity
26 | QVQLQESGGGLVLAGGSLRLSCSASGNISVYGSMGWYRQSPGKEREFVATIDPGTNTNYADSVKDRFTISRDYAKNSVYLQMNSLKPEDTAVYYCAVEAGSDWPYRYWGQGTQVTVSS | low polyreactivity
27 | QVQLVESGGGLVQAGGSLRLSCAASGNTFYGYAMGWYSQAPGQERELVASITLSGDSTYYADSVKGRFTISRDNAKNTVYLQMNTLKPEDTAVYYCAGVYTYPLGYYHYTYDYWGQGTQVTVSS | low polyreactivity
28 | QVQLVESGGGLVQAGGSLRLSCAASGRIFTVNAMGWYRQAPGKERELVAAISKSGGRTYYADSVKGRFTISRDNAKNTVYLQMNSLKPEDTAVYYCAKRVRTGSVGNFNYWGLGTQVTVSS | high polyreactivity
29 | QVQLVESGGGLVQAGGSLRLSCAASGSNFPGYAMGWYRQAPGKERELVAAISTSGGSTYADSVKGRFTISRDNAKNTVYLQMNSLKPEDTAVYYCAATYTYTSPVYYSLDGPWPYDYWGQGTQVTVSS | low polyreactivity
30 | QVQLVESGGGLVQAGGSLRLSCAASGYIFHSYAMGWYRQAPGKERELVAAITSSGGSTYYADSVKGRFTISRDNAKNTVYLQMNSLKPEDTAVYYCAAEYYYVYPYYRSPKFDYWGQGTQVTVSS | high polyreactivity
31 | QVQLVESGGGLVQAGCSLRLSCAASGSTFPYNAMGWYRQAPGKERELVATIDATGGSTSYADSVKGRFTISRDNAKNTVYLQMNSLKPEDTAVYYCAAVAYILYFYAYYLTYDYWGQGTQVTVSS | low polyreactivity
32 | QVHLVESGGGLVQAGGTLRLSCAASGLFARNAMGWYRQAPGKERELVAAINRSGGSTYYADSVKGRFTISRDNAKNTVYLQMNSLKPEDTAVYYCNKAFTHTKDRSPIAYEYGYWGQGTQVTVSS | low polyreactivity
33 | QVQLVESGGGLVQAGGSLRLSCAASGRIFVPNAMGWYRQAPGKERELVAAISSSGGSTYYADSVKGRFTISRDNAKNTVYLQMNSLKPEDTAVYDCNKVQSTANDYWGQGTQVTVSS | low polyreactivity
34 | QVQLVESGGGLFQAGGSLRISCAASGLTFKINAMGWYRQAPGKERELVAAISSGTSTNYADSVKGRFTISRDNAKNTVYLQMNSLKPEDTAVYYCAARGFWGVAYRYYYWGQGTQVTVSS | high polyreactivity
35 | QVQLVESGGGLVQAGGSLRLSCAASGRTIGVYAMGWYRQAPGKERELVAAISWSGGTTYYADSVKGRFTISRDNAKNTVYLQMNSLKPEDTAVYYCAADSYTEVEYWGQGTQVTVSS | low polyreactivity
36 | QVQLVESRGGLVQAGGSLRLSCAPSGSTFHYYAMGWYRQAQGKERELDAAISDRDGGTFYADSVKGRFTISRDNATNTVYLQINSLKPEDTAVYYCYARKRGARFILGYDYWGQGPQVTVSS | low polyreactivity
37 | QVQLVESGGGLVQAGGSLRVSCAASGRIFRWYAMGWYRQAPGKERELVAAITSRGTSTYYADSVKGRFTISRDNAKNTDYLQMNSLKPEDTAVYYCNAVPSRGYDYWGQGTQVTVSS | high polyreactivity
38 | QVQLVESGGGLGQAGGSLRLSCAASGRTFYYNAMGWYRQAPGKERELVAAITRSGGRTYYADSVKGRFTISRDTAKNTVYLQMNSLKPEDTAVYYCAARWSSYYSSMDYWGQGSQVTVSS | high polyreactivity
39 | QVQLVESGGGLVQAGGSLRLSCAASGITFYYYAMGWYTQAPGKERELVAAISDNGSRTYYADSVKGRFTISRDNAQNTVYLQMNSLKPEDTAVYYCAAEGSYGYDYWGQGTQVTVSS | high polyreactivity
40 | QVQLVESGGGLVQAGGSLRLSCAASGSTFYWYAMGWYRQAPGKERELVAAISSGGSTYYADSVKGRFTISRDNAKNTVYLQMNSLKPEDTAVYYCAAQTPYYLWYDTGDYWGQGTQVTVSS | high polyreactivity
41 | QVQLVESGGGLVQAGGSLRCSWAASGFIFTPYAMGWYRQAPGTEREFVATITWSGGSTNYADSVKGRFTISRDNAKNTVYLPMNSLKPDDTAVYYCNADTWSPNDYWGQGTQVTVSS | low polyreactivity
42 | QVQLVESGGGLVQAGGSLRLSCAASGSTFLYNAMGWYRQAPGKERELVAAISWSGGSTYYADSVKGRFTISRDNAKNTVYLQMNSLKPEDTAVYYCNALSVPDYDYWGQGTQVTVSS | high polyreactivity
43 | QVQLVESGGGLVQAGGSLRLSCAASGSIFGYNVMGWYRQAPGKERELVAAISSSTGSTNYADSVKGRFTISRDNAKNTVYLQMNSLKPEDTAVYYCAVDPYVHWTTKLYDYWGQGSQVTVSS | low polyreactivity
